# Measured values from PMC4032258, “Transmembrane Recognition of the Semaphorin Co-Receptors Neuropilin 1 and Plexin A1: Coarse-Grained Simulations” (PLoS ONE, 2014).
# Biological target: the molecule itself
# Assay: two-hybrid; bacterial adenylate cyclase two-hybrid (BACTH) in E. coli BTH101 (cya-); TM sequences fused to T18 and T25 fragments of CyaA behind an OmpA signal sequence; read out on MacConkey indicator plates and by beta-galactosidase activity, normalised to GpA-GpA as 100%
protein,measurement,value
"ILITIIAMSALGVLLGAVCGVVLYRKR (domain or fragment, human, not part of NRP1; Modified pKTN25 and pUT18 plasmids; also called NRP1 TM domain; source: bacterial two-hybrid fusion (BACTH), E. coli BTH101 (cya-), cotransformed plasmids; not shown: T25 or T18 fragment of Bordetella pertussis adenylate cyclase CyaA, C-terminal, kept) [Neuropilin 1 transmembrane domain (NRP1 TM), BACTH fusion]",interaction propensity (beta-galactosidase activity) relative to GpA-GpA,~50%
